Experiment [1] has as its target T1, DV2 sE(1–395), postfusion trimer (dengue virus type 2, UniProt P12823). Put plainly: FP.
Experiment [2] concerns the target T1, DV2 sE(1–395), postfusion trimer. Put plainly: FP. The source holds these as a separate data set.

The values below come from article PMC2851732 (2010).

Read-outs that look alike come from different tables or passages of the source. Ends that are not written are not given here. * marks the point of attachment. FITC = O=C1OC2(c3ccc(O)cc3Oc3cc(O)ccc32)c2ccc(NC(=S)*)cc21; βAla = NCCC(=O)O

B1: stem peptide DV2^413–447 (peptide)
chain: AILGDTAWDFGSLGGVFTSIGKALHQVFGAIYGAA
As a reminder, the Kd is the constant that tells how readily two partners part at equilibrium. A high value points to weaker binding. B1 returned a Kd in experiment [1] of 275 nM.

B2: FITC-conjugated stem peptide DV2^419–447 (peptide)
chain: {FITC-βAla}-AWDFGSLGGVFTSIGKALHQVFGAIYGAA
Turning to B2, the dissociation constant Kd in experiment [2] came to 125 nM.

B3: FITC-conjugated stem peptide DV2^419–440 (peptide)
chain: {FITC-βAla}-AWDFGSLGGVFTSIGKALHQVF
In experiment [2], B3 gave a dissociation constant Kd of 250 nM.
